# Assay results as given in patent publication US20090117104A1 (published 2009).
# Ends that are not written are not given here.
# T1: mutated human GLP-2R (human, UniProt O95838 1-553)
# T1 chain: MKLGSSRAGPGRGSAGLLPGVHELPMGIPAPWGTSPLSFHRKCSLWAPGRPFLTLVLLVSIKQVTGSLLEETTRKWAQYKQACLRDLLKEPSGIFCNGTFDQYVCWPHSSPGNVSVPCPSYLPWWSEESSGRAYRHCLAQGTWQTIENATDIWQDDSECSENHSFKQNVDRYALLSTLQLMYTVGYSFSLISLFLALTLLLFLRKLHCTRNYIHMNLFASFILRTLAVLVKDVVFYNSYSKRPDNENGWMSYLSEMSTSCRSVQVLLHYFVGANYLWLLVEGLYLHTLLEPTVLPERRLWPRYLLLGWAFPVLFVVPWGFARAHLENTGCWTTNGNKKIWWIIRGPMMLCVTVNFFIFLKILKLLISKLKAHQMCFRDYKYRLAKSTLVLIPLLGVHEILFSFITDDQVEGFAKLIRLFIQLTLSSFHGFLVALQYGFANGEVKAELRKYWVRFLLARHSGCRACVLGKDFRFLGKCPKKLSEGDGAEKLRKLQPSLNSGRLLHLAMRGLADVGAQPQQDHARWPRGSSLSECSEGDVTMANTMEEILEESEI
# Legend:
# [1] = target: mutated human GLP-2R (human) (UniProt O95838); assay: cell-based or functional assay
# [2] = target: T1, mutated human GLP-2R; assay: cell-based or functional assay
Binder,"EC50 (nM), cAMP expression assay [1] [nM]",also measured
"HGDGSFSDEMNTILDNLAARDFINWLIQTKITDGGGGSCPPCP (Fc fusion, not shown: a dimerising Fc or GST, cysteine pairing not given here; also: mimetibody: followed by CH2-CH3 domains not given here) [A2G GLP-2 mimetibody linker length variant, SEQ ID NO: 6]",40,
"HGDGSFSDEMNTILDNLAARDFINWLIQTKITDGGGGSGGGGSCPPCP (Fc fusion, not shown: a dimerising Fc or GST, cysteine pairing not given here; also: mimetibody: followed by CH2-CH3 domains not given here) [A2G GLP-2 mimetibody linker length variant, SEQ ID NO: 7]",22.5,
"A2G GLP-2 mimetibody linker length variant, SEQ ID NO: 8 (Fc fusion, not shown: a dimerising Fc or GST, cysteine pairing not given here; also: mimetibody: followed by CH2-CH3 domains not given here) HGDGSFSDEMNTILDNLAARDFINWLIQTKITDGGGGSGGGGSGGGGSCPPCP",12.7,
"A2G GLP-2 mimetibody linker length variant, SEQ ID NO: 9 (Fc fusion, not shown: a dimerising Fc or GST, cysteine pairing not given here; also: mimetibody: followed by CH2-CH3 domains not given here) HGDGSFSDEMNTILDNLAARDFINWLIQTKITDGGGGSGGGGSGGGGSGGGGSCPPCP",4.6,
"A2G GLP-2 mimetibody linker length variant, SEQ ID NO: 10 (Fc fusion, not shown: a dimerising Fc or GST) HGDGSFSDEMNTILDNLAARDFINWLIQTKITDGGGGSGGGGSGGGGSGGGGSGGGGSCPPCP",2.1,
"GLP-2 mimetibody Pro substitution variant, SEQ ID NO: 42 (Fc fusion, not shown: a dimerising Fc or GST) HGDGSFSDEMNTILDNLAARDFINWLIQTKITDGSGGGSGALVPVSSESKYGPPCPPCP",3.6,
"GLP-2 mimetibody Pro substitution variant, SEQ ID NO: 43 (Fc fusion, not shown: a dimerising Fc or GST) HGDGSFSDEMNTILDNLAARDFINWLIQTKITDGSGGGSGALVAVPSESKYGPPCPPCP",4.8,
"GLP-2 mimetibody Pro substitution variant, SEQ ID NO: 44 (Fc fusion, not shown: a dimerising Fc or GST) HGDGSFSDEMNTILDNLAARDFINWLIQTKITDGSGGGSGALVAVSPESKYGPPCPPCP",7.7,
"GLP-2 mimetibody Pro substitution variant, SEQ ID NO: 45 (Fc fusion, not shown: a dimerising Fc or GST) HGDGSFSDEMNTILDNLAARDFINWLIQTKITDGSGGGSGALVAVSSESKPGPPCPPCP",5.8,
"HGDGSFSDEMNTILDGQAARDFINWLIQTKITD [GLP-2(A2G, N16G, L17Q)]",,activity in the cAMP expression assay relative to wild type GLP-2 [2]: 2 fold less
"HGDGSFSDEMNTILDNQAARDFINWLIQTKITD [GLP-2(A2G, L17Q)]",,activity in the cAMP expression assay relative to wild type GLP-2 [2]: 3 fold less
A2S GLP-2 IgG4 mimetibody (Fc fusion) HSDGSFSDEMNTILDNLAARDFINWLIQTKITDGSGGGSGTLVTVSSESKYGPPCPPCPAPEAAGGPSVFLFPPKPDTLMISRTPEVTCVVVDVSQEDPEVQFNWYVDGVEVHNAKTKPREEQFNSTYRVVSVLTVLHQDWLNGKEYKCKVSNKGLPSSIEKTISKAKGQPREPQVYTLPPSQEEMTKNQVSLTCLVKGFYPSDIAVEWESNGQPENNYKTTPPVLDSDGSFFLYSRLTVDKSRWQEGNVFSCSVMHEALHNHYTQKSLSLSLGK,,potency in the cAMP expression assay relative to the corresponding peptide [2]: ~4 fold less
